Residue numbers refer to the chain shown, from its start.

Consider 26 molecules from patent US20150175665A1 (IPSEN PHARMA S A S, published 2015).

The labels stand for the following.
B1: (4F-Phe^1, Aib^2, A5c^11, 41)hGIP(1-42)-OH (peptide)
peptide: FXEGTFISDYXIAMDKIHQQDFVNWLLAQKGKKNDWKHNIXQ
modifications: 4F-Phe at 1; Aib at 2; A5c at 11 and 41
B2: (3,5I-Tyr^1, Aib^2, A5c^11, Nle^14)hGIP(1-42)-OH (peptide)
peptide: B1 peptide with F1Y, M14X, X41T
modifications: 3,5I-Tyr at 1; Aib at 2; A5c at 11; Nle at 14
B3: (3F-Phe^1, Aib^2, A5c^11, 41)hGIP(1-42)-OH (peptide)
peptide: B1 peptide
modifications: 3F-Phe at 1; Aib at 2; A5c at 11 and 41
B4: (4CN-Phe^1, Aib^2, A5c^11, 41)hGIP(1-42)-OH (peptide)
peptide: B1 peptide
modifications: 4CN-Phe at 1; Aib at 2; A5c at 11 and 41
B5: (3Cl-Tyr^1, Aib^2, A5c^11, Nle^14)hGIP(1-42)-OH (peptide)
peptide: B1 peptide with F1Y, M14X, X41T
modifications: 3Cl-Tyr at 1; Aib at 2; A5c at 11; Nle at 14
B6: (4Hppa^1, Aib^2, A5c^7)hGIP(1-30)-NH2 (peptide)
peptide: XXEGTFXSDYSIAMDKIHQQDFVNWLLAQK
modifications: 4Hppa at 1; Aib at 2; A5c at 7; C-terminal amide
B7: (3F-Tyr^1, Gly^2, A5c^11, 40)hGIP(1-42)-OH (peptide)
peptide: B1 peptide with F1Y, X2G, I40X, X41T
modifications: 3F-Tyr at 1; A5c at 11 and 40
B8: [Tyr^1-Ψ-(CH2-NH)Gly^2, A5c^11, 41]hGIP(1-42)-OH (peptide)
peptide: B1 peptide with F1Y, X2G
modifications: pseudopeptide bond Ψ-(CH2-NH) between Tyr 1 and Gly 2; A5c at 11 and 41
B9: (4Hppa^1, Aib^2, 11, Nle^14)hGIP(1-30)-NH2 (peptide)
peptide: B6 peptide with X7I, S11X, M14X
modifications: 4Hppa at 1; Aib at 2 and 11; Nle at 14; C-terminal amide
B10: (4Hppa^1, Aib^2, A5c^7, Nle^14)hGIP(1-30)-NH2 (peptide)
peptide: B6 peptide with M14X
modifications: 4Hppa (3-(4-hydroxyphenyl)propionic acid) at 1; Aib at 2; A5c at 7; Nle at 14; C-terminal amide
B11: (4Hppa^1, Aib^2, 11)hGIP(1-30)-NH2 (peptide)
peptide: B6 peptide with X7I, S11X
modifications: 4Hppa at 1; Aib at 2 and 11; C-terminal amide
B12: (4Me-Phe^1, Aib^2, A5c^11, His^43)hGIP(1-43)-OH (peptide)
peptide: FXEGTFISDYXIAMDKIHQQDFVNWLLAQKGKKNDWKHNITQH
modifications: 4Me-Phe at 1; Aib at 2; A5c at 11
B13: (3Cl-Tyr^1, Aib^2, A5c^11, 14, His^43)hGIP(1-43)-OH (peptide)
peptide: B12 peptide with F1Y, M14X
modifications: 3Cl-Tyr at 1; Aib at 2; A5c at 11 and 14
B14: (3Cl-Tyr^1, D-Ala^2, A5c^11, Nle^14, His^43)hGIP(1-43)-OH (peptide)
peptide: B12 peptide with F1Y, X2A, M14X
modifications: 3Cl-Tyr at 1; D-Ala at 2; A5c at 11; Nle at 14
notes: X stands for a non-natural residue
B15: (3Cl-Tyr^1, Aib^2, A5c^11, Nle^14, His^43)hGIP(1-43)-OH (peptide)
peptide: B12 peptide with F1Y, M14X
modifications: 3Cl-Tyr at 1; Aib at 2; A5c at 11; Nle at 14
B16: (2,6Me-Tyr^1, Aib^2, A5c^11, 14, His^43)hGIP(1-43)-OH (peptide)
peptide: B12 peptide with F1Y, M14X
modifications: 2,6Me-Tyr at 1; Aib at 2; A5c at 11 and 14
B17: (2,6Me-Tyr^1, Aib^2, A5c^11, Nle^14, His^43)hGIP(1-43)-OH (peptide)
peptide: B12 peptide with F1Y, M14X
modifications: 2,6Me-Tyr at 1; Aib at 2; A5c at 11; Nle at 14
B18: (3Cl-Tyr^1, D-Ala^2, A5c^11, 14, His^43)hGIP(1-43)-OH (peptide)
peptide: B12 peptide with F1Y, X2A, M14X
modifications: 3Cl-Tyr at 1; D-Ala at 2; A5c at 11 and 14
notes: as for B14
B19: (3Br-Tyr^1, Aib^2, A5c^11, Nle^14, His^43)hGIP(1-43)-OH (peptide)
peptide: B12 peptide with F1Y, M14X
modifications: 3Br-Tyr at 1; Aib at 2; A5c at 11; Nle at 14
B20: (3Cl-Tyr^1, Aib^2, A5c^11, Nle^14, Cys^43)hGIP(1-43)-OH (peptide)
peptide: B12 peptide with F1Y, M14X, H43C
modifications: 3Cl-Tyr at 1; Aib at 2; A5c at 11; Nle at 14
B21: [3Cl-Tyr^1, D-Ala^2, A5c^11, 14, Lys^43(N-C(O)-(CH2)10-CH3)]hGIP(1-43)-OH (peptide)
peptide: B12 peptide with F1Y, X2A, M14X, H43K
modifications: 3Cl-Tyr at 1; D-Ala at 2; A5c at 11 and 14; Lys(N-C(O)-(CH2)10-CH3) at 43
notes: as for B14
B22: [3Cl-Tyr^1, Aib^2, A5c^11, Nle^14, Cys^43(succinimide-N-(CH2)2-C(O)NH-(CH2)3-O-CH2-CH(20K PEG)-CH2-20K PEG)]hGIP(1-43)-NH2 (peptide)
peptide: B12 peptide with F1Y, M14X, H43C
modifications: 3Cl-Tyr at 1; Aib at 2; A5c at 11; Nle at 14; Cys(succinimide-N-(CH2)2-C(O)NH-(CH2)3-O-CH2-CH(20K PEG)-CH2-20K PEG) at 43; C-terminal amide
notes: Branched PEGylated analogue
B23: [3Cl-Tyr^1, D-Ala^2, A5c^11, Nle^14, Cys^43(succinimide)]hGIP(1-43)-OH (peptide)
peptide: B12 peptide with F1Y, X2A, M14X, H43C
modifications: 3Cl-Tyr at 1; D-Ala at 2; A5c at 11; Nle at 14; Cys(succinimide) at 43
notes: as for B14
B24: (2,6Me-Tyr^1, Aib^2, A5c^11, His^43)hGIP(1-43)-OH (peptide)
peptide: B12 peptide with F1Y
modifications: 2,6Me-Tyr at 1; Aib at 2; A5c at 11
B25: [3Cl-Tyr^1, D-Ala^2, A5c^11, Nle^14, Lys^43(N-C(O)-(CH2)10-CH3)]hGIP(1-43)-OH (peptide)
peptide: B12 peptide with F1Y, X2A, M14X, H43K
modifications: 3Cl-Tyr at 1; D-Ala at 2; A5c at 11; Nle at 14; Lys(N-C(O)-(CH2)10-CH3) at 43
notes: as for B14
B26: [3Cl-Tyr^1, D-Ala^2, A5c^11, 14, Cys^43(succinimide)]hGIP(1-43)-OH (peptide)
peptide: B12 peptide with F1Y, X2A, M14X, H43C
modifications: 3Cl-Tyr at 1; D-Ala at 2; A5c at 11 and 14; Cys(succinimide) at 43
notes: as for B14

For this assay, the target named is T1, human recombinant GIP receptor (human, UniProt P48546 22-466).
T1 construct: whole, on cells; Assayed as washed membranes of CHO-K1 cells expressing the receptor; also called hGIP receptor
T1 sequence (looked up): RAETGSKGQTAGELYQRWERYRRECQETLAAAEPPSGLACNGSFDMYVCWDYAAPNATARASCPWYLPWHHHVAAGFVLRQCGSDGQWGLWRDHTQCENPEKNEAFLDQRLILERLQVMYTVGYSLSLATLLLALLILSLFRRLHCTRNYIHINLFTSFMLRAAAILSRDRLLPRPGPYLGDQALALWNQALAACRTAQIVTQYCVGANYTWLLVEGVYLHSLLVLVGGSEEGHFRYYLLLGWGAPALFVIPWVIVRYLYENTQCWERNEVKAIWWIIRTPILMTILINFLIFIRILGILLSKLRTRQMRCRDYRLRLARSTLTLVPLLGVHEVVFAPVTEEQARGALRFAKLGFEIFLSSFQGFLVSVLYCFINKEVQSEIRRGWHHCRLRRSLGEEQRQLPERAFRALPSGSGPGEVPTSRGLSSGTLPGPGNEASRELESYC
In words: displacement of [125I]GIP, membranes of CHO-K1 cells expressing human GIP receptor. The procedure:
Membranes for in vitro receptor binding assays were prepared by homogenizing the CHO—K1 clonal cells expressing the human recombinant GIP receptor, with a Brinkman Polytron (setting 6, 15 sec), in ice-cold 50 mM Tris-HCl and then subjected to two centrifugations at 39,000 g for 10 minutes, with a resuspension in fresh buffer in between. For the assay, aliquots of the washed membrane preparations were incubated (100 minutes at 25° C. with 0.05 nM [¹²⁵1]GIP (2200 Ci/mmol) in 50 mM Tris-HCl, 0.1 mg/ml bacitracin, and 0.1% BSA. The final assay volume was 0.5 ml. The incubations were terminated by rapid filtration through GF/C filters (pre-soaked in 0.5% polyethylenimine) using a Brandel filtration manifold. Each tube and filter were then washed three times with 5-ml aliquots of ice-cold buffer.
Specific binding was defined as the total radioligand bound minus that bound in the presence of 1000 nM GIP.
Background: Displacement assays read how much labelled ligand stays bound in the presence of the test substance.
As a reminder, the Ki is the dissociation constant of the complex between target and ligand, obtained from inhibition or displacement. With B1, the Ki worked out at 5.82 nM. With B2, the Ki came out at 77.9 nM. Next, B3: 5.43 nM. As for B4, the Ki worked out at 14.4 nM. The value for B5 was 0.42 nM; that for B6 was 5 nM; that for B7 was 10.4 nM. For the molecule B8, the Ki was determined as 49 nM.

In the case of B9, the Ki came to 20.3 nM. On to B10, for which the inhibitory constant (Ki) came to 12.6 nM. Consider B11, for which the Ki is 15.4 nM. The value for B12 was 9.13 nM; that for B13 was 0.78 nM; that for B14 was 8.89 nM.

As for B15, the Ki is 0.76 nM. The value for B16 was 50.2 nM; that for B17 was 39 nM. In the case of B18, the Ki was found to be 5.06 nM. Next, B19: 1.09 nM; B20: 0.83 nM. Turning to B21, the Ki worked out at 9.06 nM. The value for B22 was 42.4 nM; that for B23 was 9.13 nM. As for B24, the Ki turned out to be 35 nM. The value for B25 was 6.64 nM; that for B26 was 1.41 nM.
